The labels stand for the following.
B1: human soluble ULBP6 haplotype 02 (hULBP6_02) (ligand)
chain: RRDDPHSLCYDITVIPKFRPGPRWCAVQGQVDEKTFLHYDCGNKTVTPVSPLGKKLNVTTAWKAQNPVLREVVDILTEQLLDIQLENYTPKEPLTLQARMSCEQKAEGHSSGSWQFSIDGQTFLLFDSEKRMWTTVHPGARKMKEKWENDKDVAMSFHYISMGDCIGWLEDFLMGMDSTLEPSAGAPLAMSSG
notes: also called sULBP6_02
B2: human soluble ULBP6 haplotype 01 (hULBP6_01) (ligand)
chain: GRDDPHSLCYDITVIPKFRPGPRWCAVQGQVDEKTFLHYDCGNKTVTPVSPLGKKLNVTTAWKAQNPVLREVVDILTEQLRDIQLENYTPKEPLTLQARMSCEQKAEGHSSGSWQFSIDGQIFLLFDSEKRMWTTVHPGARKMKEKWENDKDVAMSFHYISMGDCIGWLEDFLMGMDSTLEPSAGAPLAMSSG
notes: also called sULBP6_01

The target of assay [1] is hNKG2D-Fc (human NKG2D 78-216 with C-terminal long huFc-Flag tag) (human). Nature of the assay: SPR (BIACORE 8K, 37 C); hNKG2D-Fc captured on Protein A, soluble ligand injected.
hNKG2D-Fc (human NKG2D 78-216 with C-terminal long huFc-Flag tag) (human), sequence (chain, as listed by the source limits assumed): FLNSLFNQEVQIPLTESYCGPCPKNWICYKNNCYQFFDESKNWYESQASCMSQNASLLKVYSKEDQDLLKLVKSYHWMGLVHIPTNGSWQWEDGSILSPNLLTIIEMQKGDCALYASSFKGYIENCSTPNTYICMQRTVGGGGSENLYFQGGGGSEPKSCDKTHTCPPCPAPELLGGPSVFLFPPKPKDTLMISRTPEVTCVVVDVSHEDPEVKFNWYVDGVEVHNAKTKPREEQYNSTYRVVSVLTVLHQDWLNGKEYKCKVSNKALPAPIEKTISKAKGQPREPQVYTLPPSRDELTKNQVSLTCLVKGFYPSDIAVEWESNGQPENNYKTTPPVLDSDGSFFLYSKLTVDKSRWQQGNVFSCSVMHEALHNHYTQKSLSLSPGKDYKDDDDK
In assay [2] the target is T1, NKG2D on cells (NKG2D expressing cells, primed PBMCs) (UniProt P26718 1-216).
T1 construct: whole, on cells; also called cell surface NKG2D
T1 sequence (looked up): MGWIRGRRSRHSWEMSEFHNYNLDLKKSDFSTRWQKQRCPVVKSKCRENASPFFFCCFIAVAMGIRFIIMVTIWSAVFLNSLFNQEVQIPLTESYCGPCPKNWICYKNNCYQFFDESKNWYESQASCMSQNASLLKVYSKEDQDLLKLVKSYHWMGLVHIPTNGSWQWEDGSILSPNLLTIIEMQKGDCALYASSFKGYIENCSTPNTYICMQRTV
As to the kind of experiment: competition with anti-NKG2D mAb on NKG2D expressing cells (data not shown).

The target of assay [3] is B1. As to the kind of experiment: blocking ELISA; hNKG2D coated, antibody titrated with biotinylated hULBP6_02.
Assay [4] has as its target B1. As to the kind of experiment: cell-based or functional assay.
Assay [5] addresses B2. Nature of the assay: SPR (BIACORE).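 Further: soluble human and cynomolgus NKG2D ligands injected as analytes in 3-fold dilution series spanning 0.01 to 50 nM at 37 °C, reference-subtracted sensorgrams fitted to a 1:1 Langmuir model.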
In assay [6] the target is T2, human soluble ULBP2 (hULBP2) (human, UniProt Q9BZM5 26-216).
T2 construct: also called sULBP2
T2 sequence: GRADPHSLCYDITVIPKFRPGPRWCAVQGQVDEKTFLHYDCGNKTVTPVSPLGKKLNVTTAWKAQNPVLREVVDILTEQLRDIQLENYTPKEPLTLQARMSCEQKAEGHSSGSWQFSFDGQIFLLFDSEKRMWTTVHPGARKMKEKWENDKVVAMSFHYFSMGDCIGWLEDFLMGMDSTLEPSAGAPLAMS
As to the kind of experiment: SPR (BIACORE).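 Further: soluble human and cynomolgus NKG2D ligands injected as analytes in 3-fold dilution series spanning 0.01 to 50 nM at 37 °C, reference-subtracted sensorgrams fitted to a 1:1 Langmuir model.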

Assay [7] concerns the target T3, cynomolgus soluble ULBP5 (cULBP5) (cynomolgus).
T3 construct: also called Cyno-cULBP5
T3 chain: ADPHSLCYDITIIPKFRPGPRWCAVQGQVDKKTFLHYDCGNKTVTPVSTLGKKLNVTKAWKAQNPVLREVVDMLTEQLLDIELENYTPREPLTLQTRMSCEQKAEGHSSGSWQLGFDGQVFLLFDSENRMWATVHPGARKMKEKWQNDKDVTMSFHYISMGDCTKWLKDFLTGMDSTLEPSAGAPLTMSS
As to the kind of experiment: SPR (BIACORE).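 Further: soluble human and cynomolgus NKG2D ligands injected as analytes in 3-fold dilution series spanning 0.01 to 50 nM at 37 °C, reference-subtracted sensorgrams fitted to a 1:1 Langmuir model.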

Assay [8] deals with T4, cynomolgus soluble ULBP2/6 (cULBP2/6) (cynomolgus, UniProt Q5VY80 28-217 (human entry), limits assumed).
T4 construct: also called cyno ULBP6; Cyno-cULBP2/6
T4 chain: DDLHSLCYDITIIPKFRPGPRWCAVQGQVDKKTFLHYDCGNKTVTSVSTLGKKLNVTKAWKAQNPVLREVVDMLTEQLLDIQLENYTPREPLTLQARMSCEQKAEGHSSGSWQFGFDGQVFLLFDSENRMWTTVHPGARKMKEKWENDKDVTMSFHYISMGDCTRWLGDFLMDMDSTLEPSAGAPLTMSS
As to the kind of experiment: SPR (BIACORE).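 Further: soluble human and cynomolgus NKG2D ligands injected as analytes in 3-fold dilution series spanning 0.01 to 50 nM at 37 °C, reference-subtracted sensorgrams fitted to a 1:1 Langmuir model.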

Assay [9] addresses T5, human soluble ULBP5 (hULBP5) (human, UniProt Q6H3X3 26-218).
T5 construct: also called sULBP5
T5 sequence: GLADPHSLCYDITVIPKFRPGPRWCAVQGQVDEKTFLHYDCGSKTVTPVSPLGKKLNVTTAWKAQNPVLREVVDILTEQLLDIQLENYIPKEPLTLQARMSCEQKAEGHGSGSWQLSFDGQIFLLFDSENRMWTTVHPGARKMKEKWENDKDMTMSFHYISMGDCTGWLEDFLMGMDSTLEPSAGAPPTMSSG
Nature of the assay: SPR (BIACORE).

For assay [10], the target named is B1. Nature of the assay: SPR (BIACORE).
In assay [11] the target is B2. Nature of the assay: blocking ELISA; hNKG2D coated, antibody titrated with biotinylated hULBP6_01.
Assay [12] deals with B1. As to the kind of experiment: blocking ELISA; hNKG2D coated, antibody titrated with biotinylated hULBP6_02; hNKG2D-hULBP6_02 interaction; value of the running text.
Assay [13] has as its target B2. As to the kind of experiment: blocking ELISA; hNKG2D coated, antibody titrated with biotinylated hULBP6_01; hNKG2D-hULBP6_01 interaction; value of the running text.
Assay [14] addresses T4, cynomolgus soluble ULBP2/6 (cULBP2/6). Nature of the assay: BLI (OCTET), mouse antibody captured from hybridoma supernatant on AMC biosensor, 300 nM cULBP2/6.

In [1], B1 gave a Kd of 4.8 nM. Also, the binding result in [2] is recorded as “binds”.
The corresponding values for B2 are 41 nM and “binds”.

B3: Humanized 8E11 (h8E11) (E-) (antibody, human IgG1, kappa, N297G, V domains shown)
VH: EVQLVESGGGLVQPGGSLRLSCAASGFTFRTYGMHWVRQAPGKGLEWVAYISSGSGTIDYADTVKGRFTISRDNAKNSLYLQMNSLRAEDTAVYYCTRQTGAMDYWGQGTLVTVSS
VL: EIVLTQSPATLSLSPGERATLSCSASSSVSYMNWYQQKPGQSPRLWIYGISNLASGVPARFSGSGSGTDFTLTISSLEPEDFAVYYCQQRSSHPLTFGGGTKVEIKR
notes: hIgG1 with N297G (effector negative)
Take B3: the IC50 in [3] is 0.035 nM; in assay [11], 5.06 nM; in assay [12], 1.59 nM; in [13] it was 4.32 nM. The “EC50 (read off the curve); NKG2D MFI on primed PBMCs of donor 1307 with 50 nM sULBP6_02” value in [4] was ~20 nM. For the same molecule, the Kd in assay [5] is 0.27 nM; in [6] it was 0.5 nM; in [7] it was 23.1 nM; in assay [8], 2.06 nM; in assay [9], 1.76 nM; in assay [10], 0.28 nM.

B4: 8E11 (mouse hybridoma clone) (antibody, V domains shown)
VH: DVQLVESGGGLVQPGGSRKLSCAASGFTFRTYGMHWVRQAPEKGLEWVAYISSGSGTIDYADTVKGRFTISRDNAKNTLFLQMTSLRSEDTAMYYCTRQTGAMDYWGQGTSVTVSS
VL: EILLTQSPAIIAASPGEKVTITCSASSSVSYMNWYQQKPGSSPKLWIYGISNLASGVPARFSGSGSGTSFSFTINSMEAEDVATYYCQQRSSHPLTFGAGTKLELK
notes: Tested as hybridoma culture supernatant
For B4, in [14], the binding result was “binds”.

B5: Humanized 7B3 (h7B3) (E-) (antibody, human IgG1, kappa, N297G, V domains shown)
VH: EVQLVESGGGLVQPGGSLRLSCAASGFTFSTYGFHWVRQAPGKGLEWVAYISSNSGTIDYADTVKGRFTISRDNAKNSLYLQMNSLRAEDTAVYYCARQGYGFDNWGQGTTVTVSS
VL: DIQLTQSPSSLSASVGDRVTITCSASSRVSYMNWYQQKPGKSPKIWVYGISNLASGVPSRFSGSGSGTDFTFTISSLQPEDIATYYCQQRSSHPLTFGGGTKVEIKR
notes: as for B3
For the molecule B5, the IC50 in assay [3] was 0.028 nM; in [11], 4.48 nM; in assay [12], 1.52 nM; in [13], 4.47 nM. The “EC50 (read off the curve); NKG2D MFI on primed PBMCs of donor 1307 with 50 nM sULBP6_02” value in assay [4] is ~20 nM. The Kd in [5] is 0.22 nM; in assay [6], 0.54 nM; in assay [7] it was 7.67 nM; in [8], 0.48 nM; in assay [9] it was 2.39 nM; in assay [10] it was 0.2 nM.

B6: 7B3 (mouse hybridoma clone) (antibody, V domains shown)
VH: DVQLVESGGGLVKPGGSRKLSCAASGFTFSTYGFHWVRQVPEKGLEWVAYISSNSGTIDYADTVKGRFTISRDNAKNTLFLQMTSLRSEDTAMYYCARQGYGFDNWGQGTTLTVSS
VL: EILLTQSPAIIAASPGEKVTITCSASSRVSYMNWYQQKPGSSPKIWVYGISNLASGVPARFSGSGSGTSFSFTINSMEAEDVATYYCQQRSSHPLTFGAGTKLELK
notes: Tested as hybridoma culture supernatant; also called mAb 7B3
Regarding B6, the binding result in [14] is “binds”.

The values above are taken from patent US20250084172A1 (23ANDME, published 2025).
